Assay results as given in the supplement of paper PMC10065799, “High-throughput profiling of sequence recognition by tyrosine kinases and SH2 domains using bacterial peptide display” (eLife, 2023).

Experiments:
AncSZ = test: phosphorylation enrichment, bacterial display (enrichment ratio); higher = better substrate or ligand; peptides without Tyr show the background
EPHB1 = EPHB1 (UniProt P54762); test: as above
EPHB2 = EPHB2 (UniProt P29323); test: as above
FGFR1 = FGFR1 (UniProt P11362); test: as above
FGFR3 = FGFR3 (UniProt P22607); test: as above
Fer (mouse) = test: as above
Fes = Fes (UniProt P07332); test: as above
Fyn = Fyn (UniProt P06241); test: as above
Hck = Hck (UniProt P08631); test: as above
Jak2 = Jak2 (UniProt O60674); test: as above
MERTK = MERTK (UniProt Q12866); test: as above
c-Abl (mouse) = test: as above
c-Src = test: as above
Grb2 SH2 = Grb2 SH2 (UniProt P62993); test: SH2 binding enrichment of the phosphorylated peptide, bacterial display (enrichment ratio); higher = better substrate or ligand; peptides without Tyr show the background
SHP2-C SH2 = test: as above
c-Src SH2 = test: as above
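Throughout, for SH2 binding enrichment of the phosphorylated peptide, bacterial display: peptide library displayed on the E. coli surface as eCPX fusions, selected cells deep-sequenced, score is each peptide's frequency after selection divided by its frequency in the input.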
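Throughout, for phosphorylation enrichment, bacterial display: 11-residue human phosphosite peptides and single-mutation variants displayed on the E. coli surface, counted by deep sequencing, each peptide's frequency after selection divided by its frequency in the unselected input library; frequency after pTyr selection over input frequency; kinase dosed for 20-30% of maximal phosphorylation in three min.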

Chain of Hck (P08631 whole entry, looked up): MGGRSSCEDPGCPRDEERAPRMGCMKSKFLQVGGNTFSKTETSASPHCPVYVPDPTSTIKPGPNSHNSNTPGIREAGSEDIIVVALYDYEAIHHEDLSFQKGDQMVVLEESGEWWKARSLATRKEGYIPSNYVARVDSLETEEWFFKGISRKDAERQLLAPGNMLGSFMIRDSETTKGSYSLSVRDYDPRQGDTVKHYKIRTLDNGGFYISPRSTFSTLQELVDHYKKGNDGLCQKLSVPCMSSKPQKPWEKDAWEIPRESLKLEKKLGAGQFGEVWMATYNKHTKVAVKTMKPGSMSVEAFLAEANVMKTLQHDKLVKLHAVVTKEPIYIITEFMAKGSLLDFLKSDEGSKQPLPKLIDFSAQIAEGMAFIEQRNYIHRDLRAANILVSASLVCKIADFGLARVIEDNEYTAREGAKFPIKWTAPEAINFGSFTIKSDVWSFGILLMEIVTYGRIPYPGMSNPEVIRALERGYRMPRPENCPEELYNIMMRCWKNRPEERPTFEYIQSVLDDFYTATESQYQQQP
Chain of FGFR3 (P22607 whole entry, looked up): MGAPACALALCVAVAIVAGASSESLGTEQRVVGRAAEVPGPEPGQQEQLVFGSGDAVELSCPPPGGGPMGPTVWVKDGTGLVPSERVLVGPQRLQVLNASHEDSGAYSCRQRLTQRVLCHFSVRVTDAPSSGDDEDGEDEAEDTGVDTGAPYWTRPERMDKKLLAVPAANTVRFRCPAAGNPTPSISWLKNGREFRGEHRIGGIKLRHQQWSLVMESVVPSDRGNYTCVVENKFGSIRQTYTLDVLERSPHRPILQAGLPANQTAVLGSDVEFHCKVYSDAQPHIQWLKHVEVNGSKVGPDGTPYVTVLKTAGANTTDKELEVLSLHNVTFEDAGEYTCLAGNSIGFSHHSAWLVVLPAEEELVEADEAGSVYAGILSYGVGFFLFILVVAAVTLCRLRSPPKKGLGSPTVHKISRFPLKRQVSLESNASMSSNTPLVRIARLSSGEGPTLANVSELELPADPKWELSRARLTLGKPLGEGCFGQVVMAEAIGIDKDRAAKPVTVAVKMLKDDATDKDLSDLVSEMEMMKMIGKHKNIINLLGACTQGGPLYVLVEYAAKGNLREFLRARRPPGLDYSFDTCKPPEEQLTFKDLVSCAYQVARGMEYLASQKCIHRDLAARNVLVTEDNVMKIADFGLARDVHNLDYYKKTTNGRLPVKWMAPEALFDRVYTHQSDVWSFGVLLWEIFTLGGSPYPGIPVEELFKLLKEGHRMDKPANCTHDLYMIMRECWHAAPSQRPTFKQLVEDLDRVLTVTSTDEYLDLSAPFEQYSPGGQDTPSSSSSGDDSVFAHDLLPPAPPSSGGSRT
Chain of Jak2 (O60674 whole entry, looked up): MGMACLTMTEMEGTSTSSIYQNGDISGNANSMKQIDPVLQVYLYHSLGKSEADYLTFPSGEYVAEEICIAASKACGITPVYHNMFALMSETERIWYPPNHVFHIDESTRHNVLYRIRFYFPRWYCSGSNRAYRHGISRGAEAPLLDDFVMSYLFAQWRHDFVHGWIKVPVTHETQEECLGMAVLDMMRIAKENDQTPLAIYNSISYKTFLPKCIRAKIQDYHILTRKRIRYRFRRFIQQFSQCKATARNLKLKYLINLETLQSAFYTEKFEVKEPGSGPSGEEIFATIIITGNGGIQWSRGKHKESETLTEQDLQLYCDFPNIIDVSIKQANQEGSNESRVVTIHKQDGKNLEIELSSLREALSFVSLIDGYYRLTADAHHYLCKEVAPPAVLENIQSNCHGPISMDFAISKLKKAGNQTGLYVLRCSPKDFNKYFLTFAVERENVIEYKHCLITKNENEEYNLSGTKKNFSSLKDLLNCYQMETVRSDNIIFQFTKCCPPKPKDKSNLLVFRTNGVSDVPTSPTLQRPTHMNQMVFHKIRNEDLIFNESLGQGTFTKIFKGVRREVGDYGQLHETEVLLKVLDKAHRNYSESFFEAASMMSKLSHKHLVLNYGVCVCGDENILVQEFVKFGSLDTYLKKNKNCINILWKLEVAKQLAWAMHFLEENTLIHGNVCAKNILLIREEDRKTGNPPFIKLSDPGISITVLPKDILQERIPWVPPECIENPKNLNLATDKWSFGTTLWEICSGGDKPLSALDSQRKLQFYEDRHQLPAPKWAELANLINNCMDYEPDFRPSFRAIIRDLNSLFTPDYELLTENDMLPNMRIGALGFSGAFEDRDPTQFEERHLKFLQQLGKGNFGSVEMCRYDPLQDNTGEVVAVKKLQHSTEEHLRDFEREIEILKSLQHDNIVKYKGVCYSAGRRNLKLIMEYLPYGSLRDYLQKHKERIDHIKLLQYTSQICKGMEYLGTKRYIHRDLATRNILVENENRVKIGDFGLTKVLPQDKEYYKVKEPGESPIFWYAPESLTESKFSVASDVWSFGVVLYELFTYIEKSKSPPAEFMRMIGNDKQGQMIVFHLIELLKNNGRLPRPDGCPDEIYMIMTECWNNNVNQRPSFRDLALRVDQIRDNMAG
Chain of EPHB2 (P29323 whole entry, looked up): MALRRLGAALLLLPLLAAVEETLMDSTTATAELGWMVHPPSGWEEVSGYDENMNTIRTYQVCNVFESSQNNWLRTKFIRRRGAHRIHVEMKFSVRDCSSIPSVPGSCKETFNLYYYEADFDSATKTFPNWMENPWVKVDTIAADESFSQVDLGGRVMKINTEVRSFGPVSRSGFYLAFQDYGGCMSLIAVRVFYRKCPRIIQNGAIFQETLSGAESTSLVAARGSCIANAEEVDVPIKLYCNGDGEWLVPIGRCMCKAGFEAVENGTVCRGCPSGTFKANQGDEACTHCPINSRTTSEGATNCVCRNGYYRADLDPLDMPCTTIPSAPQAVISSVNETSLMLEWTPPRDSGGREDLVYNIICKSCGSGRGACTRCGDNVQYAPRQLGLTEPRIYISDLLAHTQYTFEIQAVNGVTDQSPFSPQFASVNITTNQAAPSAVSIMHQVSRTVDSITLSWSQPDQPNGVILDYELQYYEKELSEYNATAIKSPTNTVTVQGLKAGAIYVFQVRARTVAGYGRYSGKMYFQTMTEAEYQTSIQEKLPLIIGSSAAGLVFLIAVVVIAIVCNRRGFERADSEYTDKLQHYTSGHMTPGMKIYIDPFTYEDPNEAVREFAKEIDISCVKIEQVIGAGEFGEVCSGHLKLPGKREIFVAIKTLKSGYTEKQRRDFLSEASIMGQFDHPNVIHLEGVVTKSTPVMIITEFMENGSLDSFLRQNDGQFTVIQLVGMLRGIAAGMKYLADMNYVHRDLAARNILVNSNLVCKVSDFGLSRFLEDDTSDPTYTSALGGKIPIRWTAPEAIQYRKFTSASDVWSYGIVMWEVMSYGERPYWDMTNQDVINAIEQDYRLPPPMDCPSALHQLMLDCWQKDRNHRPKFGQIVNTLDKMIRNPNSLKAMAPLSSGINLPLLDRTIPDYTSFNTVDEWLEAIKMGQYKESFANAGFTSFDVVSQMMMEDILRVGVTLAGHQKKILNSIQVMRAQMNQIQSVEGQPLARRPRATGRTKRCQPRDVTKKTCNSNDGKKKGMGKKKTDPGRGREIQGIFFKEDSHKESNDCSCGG
Chain of EPHB1 (P54762 whole entry, looked up): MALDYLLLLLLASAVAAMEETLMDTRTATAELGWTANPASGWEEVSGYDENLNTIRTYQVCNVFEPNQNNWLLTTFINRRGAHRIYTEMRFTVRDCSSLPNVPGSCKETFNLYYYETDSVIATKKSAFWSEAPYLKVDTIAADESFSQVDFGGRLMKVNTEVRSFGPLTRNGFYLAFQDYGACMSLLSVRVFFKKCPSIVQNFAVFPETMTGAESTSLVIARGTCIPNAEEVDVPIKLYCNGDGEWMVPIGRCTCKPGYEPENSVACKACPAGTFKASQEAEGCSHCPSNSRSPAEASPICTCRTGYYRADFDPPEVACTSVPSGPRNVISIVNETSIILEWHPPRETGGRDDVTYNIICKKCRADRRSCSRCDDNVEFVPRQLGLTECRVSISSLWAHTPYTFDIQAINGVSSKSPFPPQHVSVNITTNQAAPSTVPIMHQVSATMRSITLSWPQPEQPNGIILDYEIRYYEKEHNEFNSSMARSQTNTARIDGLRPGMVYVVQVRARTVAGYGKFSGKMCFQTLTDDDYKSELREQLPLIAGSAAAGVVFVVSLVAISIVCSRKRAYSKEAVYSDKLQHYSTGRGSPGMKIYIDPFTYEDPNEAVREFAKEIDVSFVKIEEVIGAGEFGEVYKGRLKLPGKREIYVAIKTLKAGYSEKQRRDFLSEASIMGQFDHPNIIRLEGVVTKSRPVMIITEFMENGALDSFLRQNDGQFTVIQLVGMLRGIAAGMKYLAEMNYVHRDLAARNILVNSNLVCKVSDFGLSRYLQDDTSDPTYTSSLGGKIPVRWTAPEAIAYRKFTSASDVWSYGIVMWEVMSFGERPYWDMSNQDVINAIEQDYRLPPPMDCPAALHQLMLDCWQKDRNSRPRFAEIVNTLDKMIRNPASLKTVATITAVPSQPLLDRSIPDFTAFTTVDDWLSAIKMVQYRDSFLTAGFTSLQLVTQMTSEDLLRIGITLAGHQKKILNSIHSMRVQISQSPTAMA
Chain of Fyn (P06241 whole entry, looked up): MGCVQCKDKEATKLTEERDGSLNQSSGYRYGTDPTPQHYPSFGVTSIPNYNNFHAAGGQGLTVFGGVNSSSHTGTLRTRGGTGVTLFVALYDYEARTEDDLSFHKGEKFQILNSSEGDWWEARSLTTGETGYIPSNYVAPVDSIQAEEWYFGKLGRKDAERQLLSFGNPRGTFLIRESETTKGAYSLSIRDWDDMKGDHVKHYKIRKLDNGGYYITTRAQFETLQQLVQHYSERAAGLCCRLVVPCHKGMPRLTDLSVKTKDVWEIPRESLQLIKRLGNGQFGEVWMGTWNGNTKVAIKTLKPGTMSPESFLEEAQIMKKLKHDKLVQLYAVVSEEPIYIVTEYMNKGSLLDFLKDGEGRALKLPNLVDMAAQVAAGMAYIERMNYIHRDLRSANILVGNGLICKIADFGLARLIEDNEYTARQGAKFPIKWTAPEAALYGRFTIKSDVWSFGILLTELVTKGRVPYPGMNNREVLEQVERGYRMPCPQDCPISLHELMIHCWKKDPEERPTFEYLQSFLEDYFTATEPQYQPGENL

| SH2 binding enrichment (Grb2 SH2) | SH2 binding enrichment (SHP2-C SH2) | SH2 binding enrichment (c-Src SH2) | Sequence | phosphorylation enrichment (AncSZ) | phosphorylation enrichment (EPHB1) | phosphorylation enrichment (EPHB2) | phosphorylation enrichment (FGFR1) | phosphorylation enrichment (FGFR3) | phosphorylation enrichment (Fer (mouse)) | phosphorylation enrichment (Fes) | phosphorylation enrichment (Fyn) | phosphorylation enrichment (Hck) | phosphorylation enrichment (Jak2) | phosphorylation enrichment (MERTK) | phosphorylation enrichment (c-Abl (mouse)) | phosphorylation enrichment (c-Src) |
| --- | --- | --- | --- | --- | --- | --- | --- | --- | --- | --- | --- | --- | --- | --- | --- | --- |
| 0.994 | 1.14 | 6.08 | YHLLPYTIRAM [PARS2_Y93_V95I] | 1.14 | 1.17 | 0.873 | 16.6 | 13.8 | 0.464 | 0.83 | 3.83 | 9.37 | 7.24 | 10.9 | 25.4 | 5.16 |
| 1.49 | 1.28 | 0.984 | RHPLEYLRQFP [NARS2_Y138_YF] | 0.605 | 0.372 | 0.494 | 0.369 | 0.365 | 0.275 | 0.612 | 0.342 | 1.38 | 0.66 | 0.33 | 0.554 | 0.409 |
| 0.828 | 0.718 | 0.448 | SLTGAYTSGIP [POM121C_Y378] | 0.443 | 0.299 | 0.393 | 0.494 | 0.408 | 0.306 | 0.533 | 0.376 | 0.357 | 0.44 | 0.349 | 0.52 | 0.326 |
| 0.774 | 0.499 | 0.42 | VGNAAYQAGPL [STK36_Y1181] | 0.553 | 0.358 | 0.437 | 0.407 | 0.472 | 0.392 | 0.556 | 0.458 | 0.378 | 0.592 | 0.386 | 0.531 | 0.429 |
| 1.37 | 1.15 | 0.945 | QLHEHCKIHKE [NSMAF_Y626_Y626C] | 0.682 | 0.343 | 0.422 | 0.745 | 0.651 | 0.522 | 0.612 | 0.633 | 0.649 | 0.666 | 0.629 | 0.728 | 0.724 |
| 1.19 | 1.08 | 0.604 | NPQKSYFIHLF [WAS_Y83_R86H_YF] | 0.93 | 0.644 | 0.512 | 0.475 | 0.73 | 0.449 | 1.32 | 0.396 | 0.431 | 1.29 | 0.384 | 0.77 | 0.399 |
| 0.557 | 0.524 | 0.491 | RGRSTYFWPSP [GAGE12J_Y9_R13S_YF] | 0.669 | 0.468 | 0.621 | 0.49 | 0.615 | 0.504 | 0.564 | 0.511 | 0.824 | 0.673 | 0.947 | 0.711 | 0.505 |
| 0.667 | 0.627 | 0.426 | ETMNKYHLSGR [MYEF2_Y164_D165H] | 0.539 | 0.332 | 0.355 | 0.432 | 0.367 | 0.357 | 0.53 | 0.343 | 0.467 | 0.422 | 0.385 | 0.398 | 0.375 |
| 1.1 | 0.782 | 0.533 | GTYVIYVRFGG [FLNB_Y1687] | 1.22 | 0.604 | 0.696 | 0.511 | 0.736 | 0.516 | 1.32 | 0.62 | 0.597 | 1.04 | 0.498 | 0.868 | 0.752 |
| 0.655 | 4.01 | 1.43 | ASFGPYTRVQS [FOXL2_Y258_YF] | 0.61 | 0.524 | 0.381 | 0.527 | 0.494 | 0.409 | 0.606 | 0.515 | 0.483 | 0.669 | 0.498 | 0.449 | 0.481 |
| 0.848 | 0.982 | 0.638 | KILGTYFETGS [PAX2_Y72_R71T_YF] | 0.833 | 0.491 | 0.47 | 0.814 | 0.793 | 0.467 | 0.867 | 0.577 | 0.485 | 0.717 | 0.5 | 0.668 | 0.585 |
| 0.713 | 0.68 | 0.535 | VIEQSYNETWL [SLC2A4_Y56] | 1.17 | 0.567 | 0.645 | 0.621 | 0.827 | 1.25 | 1.23 | 0.558 | 0.512 | 1.1 | 0.436 | 0.803 | 0.572 |
| 0.761 | 0.768 | 0.56 | ERMKVYVPTGF [EPHX1_Y393] | 0.658 | 0.407 | 0.522 | 0.513 | 0.539 | 0.562 | 0.818 | 0.515 | 0.472 | 0.557 | 0.453 | 0.672 | 0.563 |
| 0.676 | 0.667 | 0.305 | LADMNYVHRDL [EPHB2_Y742] | 1.51 | 0.762 | 0.565 | 0.714 | 0.801 | 0.933 | 1.6 | 0.481 | 0.916 | 0.916 | 0.796 | 0.923 | 0.721 |
| 0.724 | 0.538 | 0.629 | IGHHAYGDQYR [IDH1_Y135_R132H] | 0.564 | 0.426 | 0.363 | 0.389 | 0.342 | 0.386 | 0.537 | 0.355 | 0.439 | 0.448 | 0.421 | 0.467 | 0.418 |
| 0.685 | 0.679 | 0.615 | AFPVSYSSPGA [RET_Y687_S690P] | 0.704 | 0.442 | 0.478 | 0.423 | 0.466 | 0.468 | 0.616 | 0.518 | 0.422 | 0.508 | 0.512 | 0.572 | 0.475 |
| 0.894 | 0.732 | 0.467 | QMVGKYASSFM [AVPR2_Y124_M123K_YF] | 0.613 | 0.772 | 0.341 | 0.516 | 0.626 | 0.431 | 0.992 | 0.564 | 0.413 | 0.774 | 0.642 | 1.15 | 0.635 |
